The supplement of paper PMC9170038

Test system: MS2 coat protein
Assay: apparent KD of MS2 coat protein; designed switch direction (-1 OFF switch, 1 ON switch): -1; higher = weaker reporter binding
In short: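 The reported apparent KD is a per-design median over clusters, from curve fits of normalised cluster fluorescence. Protein titrations used SNAP-549-labelled MS2 coat protein, doubled from 0.7 or 1.5 nM to 3 µM, in Tris-HCl pH 7.5 buffer with KCl, MgCl2, BSA, DTT, tRNA and Tween-20, with no input, 200 uM small-molecule ligand, or an oligonucleotide input. The RNA switches were transcribed on Illumina chips by stalled E. coli RNA polymerase.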

[1] = Eterna round: R95, input ligand: FMN 200 uM
[2] = Eterna round: R95, input ligand: microRNA oligo, concentration not stated
[3] = Eterna round: R95, input ligand: none
[4] = input ligand: microRNA oligo, concentration not stated

Row | Sequence | apparent KD of MS2 coat protein [2] | apparent KD of MS2 coat protein (input ligand: FMN 200 uM) | apparent KD of MS2 coat protein (input ligand: none) | other results
1 | AAGAAGAUAGGAUAUACGAGGAGAGAAGAGAAGAAAGGAGGACAUGAGGAUCACCCAUGUAGAAGGAUCAGGAA [JR_Exclu2_Sub061] (puzzle: Exclusion 2) | 0.041 µM | – | – | apparent KD of MS2 coat protein [1]: 0.0502 µM; apparent KD of MS2 coat protein [3]: 0.0405 µM
2 | ACUUAUUGAGGAUAUACAGAUUAUUACAUGAGGAUCACCCAUGUUCUUCAAUGUAUAUAUGUAGAAGGCAGAAGAA [JL-ex5-4.25 Malcolm mod] (Eterna round: R97, puzzle: Exclusion 5) | – | 0.179 µM | 0.0567 µM | –
3 | AACAAGCUUUAAAGAUCCUACAUGAGGAUCACCCAUGUGCUCGUCUUGUAACGUACUGUGACGAAAGUCACGGUACG [JL TOV1 3.27] (Eterna round: R97, puzzle: Sensor, turn-off variant 1) | – | 0.205 µM | 0.278 µM | –
4 | GCAGGUUAAGUCAGGAUAUACCUAUGGAUACAUAGGUAGAAGGGACAUGAGGAUCACCCAUGUGACUCACCUGC [Fiskers BMX 4 - 59] (puzzle: Brourd's mod of Exclusion 4) | 0.0251 µM | – | – | –
5 | CUUUAGCUAGGAUAUACAUGAGGAUCACCCAUGUUAGCGGCCAAUUGGACCGCGGGUUGUAGAAGGAGCAUUAA [Atantiza] (puzzle: Exclusion 3) | 0.0298 µM | – | – | –
6 | UCAUCGCAAGGAUAUACUUGCGGUGAUGUUCGAAUUCUUCUACUUGAGGAUCACCCAAGUAGAAGGUGCGAUGA [jl-ex2.4.63 ViennaUCT mod] (Eterna round: R97, puzzle: Exclusion 2) | – | 0.0132 µM | 0.0135 µM | –
7 | GACUGGACGUGGUCUGGUAACAUGAGGAUCACCCAUGUAGGUCUAAGAACAUGCCUUUUGCACGCUCGUCUUAUAUA [JR_SV3TOV1_Sub064] (puzzle: Sensor v3, turn-off variant 1) | 0.0348 µM | – | – | apparent KD of MS2 coat protein [1]: 0.0333 µM; apparent KD of MS2 coat protein [3]: 0.0327 µM
8 | UAUGUUGUUGUGAGGAUAUACUUUGUUUGGUCGUAGUAGAAGGCACAUGAGGAUCACCCAUGUAGAUUUUUGGU [JR_BME4_Sub009] (puzzle: Brourd's mod of Exclusion 4) | 0.02 µM | – | – | –
9 | GAUCAUGCAGGAUAUACAUGGAACAUGAAAACAUGAAUUUCACAUGAGGAUCACCCAUGUAGAAGGGCAUGAUC [Omei Ex2 A12] (Eterna round: R97, puzzle: Exclusion 2) | – | 0.0542 µM | 0.579 µM | –
10 | UUUAAUUUUUUUUUUUUACAAGCUUUUUGCUCGUCUUAUACAUGAGGAUCACCCAUGUGGGUGAGGAGUAAAUUAUC [JMF 61] (puzzle: Sensor v3, turn-off variant 2) | 0.0191 µM | – | – | apparent KD of MS2 coat protein [1]: 0.0379 µM; apparent KD of MS2 coat protein [3]: 0.0667 µM
11 | GGAUGCUGAGUAAGGAUAUGGUAGGCUUGCGCAAACCAGAAGGUACAUGAGGAUCACCCAUGUAAGCAUCCAGU [eternacac ex4r4 #4] (Eterna round: R97, puzzle: Brourd's mod of Exclusion 4) | – | 0.0163 µM | 0.0145 µM | –
12 | AGUACUAACACGUAAGUGUUAGUACUAUAAGCUUGUGUUACAUGAGGAUCACCCAUGUCCUCAUAAGCUCGUCUUAA [Mat - Sensor v3 - Turn-off var 2 - D71] (puzzle: Sensor v3, turn-off variant 2) | 0.132 µM | – | – | apparent KD of MS2 coat protein [1]: 0.0343 µM; apparent KD of MS2 coat protein [3]: 0.0394 µM
13 | CCAGGCUGUGUGAGGAUAUGCUGGUCCUUGGAUCAGCAGAAGGCACAUGAGGAUCACCCAUGUGAGUAGCUUGG [JL bmx4 3.27] (puzzle: Brourd's mod of Exclusion 4) | 0.0157 µM | – | – | –
14 | GAUUUAGAGCAGGAUAUCAUAGAAUUGUAUGAAUGAGAAGGGCUCACAUGAGGAUCACCCAUGUGGUCCUAGAU [JL Dibiri mod 21] (puzzle: Exclusion 6) | 0.0217 µM | – | – | –
15 | ACAUGUCUUGUAGGAUAUAGUUGACAUGAGGAUCACCCAUGUUGAUUCAUGUCUAUCGAAAGGGACUAGAAGGACGAGAAUAUG [Ex NG2 #16] (Eterna round: R96, puzzle: Exclusion NG 2) | – | 0.0875 µM | 0.0322 µM | apparent KD of MS2 coat protein [4]: 0.02 µM
16 | AGAUAUCUAGGAUAUGCGUCGCGGAGGACUCCGAAGGGAGGACAUGAGGAUCACCCAUGUAGAAGGAGACAUUG [Eternabot (L2) Solution 38] (Eterna round: R97, puzzle: Exclusion 2) | – | 0.046 µM | 0.045 µM | –
17 | CUUUUGUGAGGAUAUCAGUAGUAGAACAAUAGUACUACUACUGAGAAGGCACAUGAGGAUCACCCAUGUUUCUC [Fiskers Ex 4 Super stable 44 mod 4] (puzzle: Exclusion 4) | 0.0587 µM | – | – | –
18 | AAAAGCCUAGGAUAUACUUGAGGAUCACCCAAGUAGGGUCCCAUGGACCCGUCCUCGUGUAGAAGGAGGAAAAG [Dierlabe] (Eterna round: R97, puzzle: Exclusion 3) | – | 0.156 µM | 0.0605 µM | –

Row | Sequence | apparent KD of MS2 coat protein [2] | apparent KD of MS2 coat protein (input ligand: FMN 200 uM) | apparent KD of MS2 coat protein (input ligand: none) | other results
19 | CGGUGUAGAGGAUAUACGUGAAUAUUAUUAGAUAAUAAUUUACAUGAGGAUCACCCAUGUAGAAGGCUAUAGCG [JR_Ex2_Sub083] (Eterna round: R97, puzzle: Exclusion 2) | – | 0.0249 µM | 0.0201 µM | –
20 | CGGGCCCAGGCAGGAUAUGUACAGCCACAAAACCCUCGUGUGAGGGACAUGAGGAUCACCCAUGUAUAGAAGGGCCAGCGCGUA [Xeditein] (Eterna round: R96, puzzle: Exclusion NG 2) | – | 0.0263 µM | 0.022 µM | apparent KD of MS2 coat protein [4]: 0.014 µM
21 | CUAGAUCUUCGGAUCUAGUACAUGAGGAUCACCCAUGUUACGAGCAGAUCUUCAUACAAGCUUUUUGCUCGUCUUAU [Sensor v3 - Turn-off variant 1 - 33] (puzzle: Sensor v3, turn-off variant 1) | 0.0195 µM | – | – | apparent KD of MS2 coat protein [1]: 0.0334 µM; apparent KD of MS2 coat protein [3]: 0.0307 µM
22 | GUCAUCACACAUGGGAUCAACAUGAGGAUCACCCAUGUUGCCAAGUUGUUUGCACGUCUUAUAAUACGUUUUUCGAG [Mod-Jxg] (Eterna round: R97, puzzle: Sensor, turn-off variant 1) | – | 0.0216 µM | 0.0282 µM | –
23 | AAGUAUCAUGUAGGAUAUGCUAUCCGAACGGUAGCAGAAGGACAUGAGGAUCACCCAUGUUCUCAUCUGUGAGAACAGAUGUCU [Ex NG1 #5] (Eterna round: R96, puzzle: Exclusion NG 1) | – | 0.0952 µM | 0.0223 µM | apparent KD of MS2 coat protein [4]: 0.0194 µM
24 | GGCAAAUUUGUAAGGAUAUUGAGCAGCGAAGAGCUCGAGAAGGUACAUGAGGAUCACCCAUGUUUCUCAGACGC [Eternabot (Original) Solution 49] (Eterna round: R97, puzzle: Brourd's mod of Exclusion 4) | – | 0.0434 µM | 0.0177 µM | –
25 | GGUGCGUUUGUGAGGAUAUGCUGGUCCUUGGUUCGGCAGAAGGCACAUGAGGAUCACCCAUGUGGUGUCGUCCC [salish99_Bmod_Ex4_046] (puzzle: Brourd's mod of Exclusion 4) | 0.032 µM | – | – | –
26 | GUGGUGACAGGAUAUACAUGAGGAUCACCCAUGUGAGGAGGACGAGACAGGUGAAGGAGUAGAAGGGUCAGAGG [JR_Exclu3_Sub027] (puzzle: Exclusion 3) | 0.0745 µM | – | – | apparent KD of MS2 coat protein [1]: 0.0667 µM; apparent KD of MS2 coat protein [3]: 0.0603 µM
27 | GCGCGCGUUGUGAGGAUAUCGGGCCCGAAAGGGCCCGAGAAGGCACAUGAGGAUCACCCAUGUAAGGUGUGUGU [-35.5, -34.8 kcal, A 23%, 0-6bis] (Eterna round: R97, puzzle: Brourd's mod of Exclusion 4) | – | 0.619 µM | 0.613 µM | –
28 | ACUUAUAGAGGAUAUACAGUUAAUUACAUGAGGAUCACCCAUGUUCUUCAAUGUAUAUAAGUAGAAGGCUAAAGGA [Mat - Exclusion 5 - Eli Mod - D6] (Eterna round: R97, puzzle: Exclusion 5) | – | 0.198 µM | 0.0193 µM | –
29 | UGAUCUAGCGGAGGAUAUACAUGAGGAUCACCCAUGUAUAGGCUAUGACCGUAGUCGUGGCACGUGUAGAAGGCCGCUAGAUCU [JL ENG2 3.77] (Eterna round: R96, puzzle: Exclusion NG 2) | – | 0.0127 µM | 0.0128 µM | apparent KD of MS2 coat protein [4]: 0.0081 µM
30 | AGAUGGCGAGGAUAUACAUGAGGAUCACCCAUGUGAAGAUAAAUAGUGAGGAAGAAAAGUAGAAGGCGCUGUCA [Mat - Exclusion 3 - Mod of Salish D27] (puzzle: Exclusion 3) | 0.0586 µM | – | – | –
31 | GCAGGAUAAGUGAGGAUAUACCUCUGGAUACAGAGGUAGAAGGCACAUGAGGAUCACCCAUGUCUAUAACCUGC [Fiskers BMX 4 - 79] (puzzle: Brourd's mod of Exclusion 4) | 0.0125 µM | – | – | –
32 | GACGAAAGAGGAUAUACCGUACGACCCUCGUCAGGGAUCCGACAUGAGGAUCACCCAUGUAGAAGGCUUGCGUC [Eternabot (Original) Solution 25] (Eterna round: R97, puzzle: Exclusion 2) | – | 0.763 µM | 0.2 µM | –
33 | AAGAAGCGAGGAUAUGCAAAAGAAAAGAAGAAGAAGAAAGAACAUGAGGAUCACCCAUGUAGAAGGCGCAAGAA [Mine, too!] (puzzle: Exclusion 2) | 0.0208 µM | – | – | apparent KD of MS2 coat protein [1]: 0.0198 µM; apparent KD of MS2 coat protein [3]: 0.0222 µM
34 | UAUAUAUAGUAAGGAUAUGUAAUUAUUUUACAAACAGAAGGUACUGACAUGAGGAUCACCCAUGUUUUAGUGUGGGCAUGUAGA [JMF's solution 46] (Eterna round: R96, puzzle: Exclusion NG 1) | – | – | – | apparent KD of MS2 coat protein [4]: 0.0397 µM
35 | GACCUGGCGAAGGAUAUCUGGAGGGAGUACAUCAGAGAAGGUCGCACAUGAGGAUCACCCAUGUUUGCAAUAGC [Eternabot (Original) Solution 22] (Eterna round: R97, puzzle: Exclusion 6) | – | 0.0257 µM | 0.0216 µM | –
